Molecular target: T1, GST-HPV-16 E6 (human papillomavirus type 16, UniProt P03126 1-158)
T1 construct: early protein 6 (E6) of human papillomavirus type 16; also called GST-E6; GST-16 E6; source: E. coli BL21, purified on glutathione Sepharose beads and kept on the beads
Assay: filter plate bead binding assay (BAP chemiluminescence); dissociation rate experiment: GST-E6 and E6AP-BAP bound to equilibrium, unbound E6AP-BAP washed away, decrease in BAP signal at each time point
Conditions: both partners purified

T1 sequence (P03126 whole entry): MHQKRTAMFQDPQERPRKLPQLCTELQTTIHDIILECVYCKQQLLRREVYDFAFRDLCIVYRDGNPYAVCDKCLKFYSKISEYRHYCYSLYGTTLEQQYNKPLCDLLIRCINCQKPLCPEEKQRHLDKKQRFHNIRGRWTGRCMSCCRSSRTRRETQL

B1: E6AP-BAP fusion protein (E6AP residues 371-440 fused to bacterial alkaline phosphatase) (domain or fragment, UniProt Q05086 371-440, looked up)
chain: ASKCLKMVYYANVVGGEVDTNHNEEDDEEPIPESSELTLQELLGEERRNKKGPRVDPLETELGVKTLDCR
notes: also called FLAG-tagged E6AP-BAP; source: E. coli BL21, purified (anti-FLAG resin, glycine pH 2.5 elution)
half-life of ligand dissociation (t1/2): 3.6 min

From PMC3871595, “Structure Based Identification and Characterization of Flavonoids That Disrupt Human Papillomavirus-16 E6 Function” (PLoS ONE, 2013)
